Experimental data as given in patent US10538802B2, “Polypeptide substrate for the detection of von Williebrand factor cleaving protease ADAMTS13” (IMMUCOR GTI DIAGNOSTICS, INC., priority 2011, dated 2020).

Target: T1, ADAMTS13 (Homo sapiens, UniProt Q76LX8)
T1 construct: tissue Gen-Probe GTI Diagnostics (ATS-13 kit calibrators, controls and proficiency samples); George King Biomedical Inc. (FACT, A-FACT, B-FACT plasmas) ATS-13; host or cells: plasma
T1 sequence (Q76LX8 75-1427): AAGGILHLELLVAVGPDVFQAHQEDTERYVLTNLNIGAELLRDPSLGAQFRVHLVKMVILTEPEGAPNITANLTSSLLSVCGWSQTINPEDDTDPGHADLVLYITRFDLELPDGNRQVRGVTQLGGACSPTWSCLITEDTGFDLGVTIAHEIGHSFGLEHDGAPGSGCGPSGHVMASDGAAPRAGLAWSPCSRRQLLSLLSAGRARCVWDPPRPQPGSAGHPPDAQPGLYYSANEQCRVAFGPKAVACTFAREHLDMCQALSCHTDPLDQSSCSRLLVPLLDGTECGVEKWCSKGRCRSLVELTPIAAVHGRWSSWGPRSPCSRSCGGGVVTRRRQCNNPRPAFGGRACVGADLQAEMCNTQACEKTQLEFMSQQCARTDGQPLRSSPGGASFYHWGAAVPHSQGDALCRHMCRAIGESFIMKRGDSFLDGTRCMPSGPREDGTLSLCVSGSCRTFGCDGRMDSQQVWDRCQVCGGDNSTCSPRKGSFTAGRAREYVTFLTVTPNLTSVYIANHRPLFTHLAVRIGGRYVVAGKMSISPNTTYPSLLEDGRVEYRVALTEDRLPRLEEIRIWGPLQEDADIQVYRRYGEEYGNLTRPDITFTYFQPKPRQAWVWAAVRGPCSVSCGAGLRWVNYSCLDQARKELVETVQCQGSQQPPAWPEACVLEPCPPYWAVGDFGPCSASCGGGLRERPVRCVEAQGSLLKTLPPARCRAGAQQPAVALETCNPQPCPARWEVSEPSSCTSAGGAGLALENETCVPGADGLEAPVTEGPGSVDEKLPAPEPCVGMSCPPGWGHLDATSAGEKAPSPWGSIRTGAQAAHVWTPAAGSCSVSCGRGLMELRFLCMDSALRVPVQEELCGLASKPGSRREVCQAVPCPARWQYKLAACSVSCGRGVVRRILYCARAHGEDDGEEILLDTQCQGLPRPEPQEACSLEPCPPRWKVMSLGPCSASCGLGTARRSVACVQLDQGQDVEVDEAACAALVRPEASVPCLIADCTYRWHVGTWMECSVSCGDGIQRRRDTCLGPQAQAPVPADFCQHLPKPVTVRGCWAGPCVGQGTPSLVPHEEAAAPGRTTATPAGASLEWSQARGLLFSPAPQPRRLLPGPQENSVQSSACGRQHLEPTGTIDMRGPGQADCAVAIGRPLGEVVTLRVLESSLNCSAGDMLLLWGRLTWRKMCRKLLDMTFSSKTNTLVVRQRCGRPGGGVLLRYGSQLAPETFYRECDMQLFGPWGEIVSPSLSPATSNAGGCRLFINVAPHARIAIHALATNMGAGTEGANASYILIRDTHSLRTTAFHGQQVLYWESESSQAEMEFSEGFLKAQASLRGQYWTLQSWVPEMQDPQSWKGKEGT
Experiment: ADAMTS13 activity assay with fluorogenic (FRET) polypeptide substrate and diluted plasma samples
Format: biochemical
Experimental: The procedure in this example was performed substantially as described in Kokame, K., Y. Nobe, Y. Kokubo, A. Okayama, and T. Miyata. 2005. FRETS-VWF73, a first fluorogenic substrate for ADAMTS13 assay. Br. J. Haematol. 129:93-100, but using SEQ ID NO: 1 in place of the 73 amino acid substrate described therein. The FRETS-VWF73 substrate solution was dissolved in 25% dimethyl sulphoxide/water to prepare the 100 microM stock solution. The GTI FRET4 SEQ ID NO: 1 was dissolved in 100% DMSO. Both substrates were diluted to equal concentrations using ATS-13 substrate buffer (Gen-Probe GT1 Diagnostics, Inc., U.S.A., Cat#ATS-13).
Plasma samples were diluted according to the ATS-13 Direction Insert using ATS-13 specimen diluent (Gen-Probe GTI Diagnostics, Inc., U.S.A., Cat# ATS-13). The diluted plasma samples were mixed with the diluted substrate and the fluorescence was read at 0, 5, 10, 15, 20, 30, 45 minutes using a Biotek FLX800 at the appropriate excitation and emission wavelengths for each substrate.
The fluorophore-quencher pair in the SEQ ID NO: 1 polypeptide substrate is FAM-5/TQ 2^Tm (Ex 485±20; Em 528±20; AAT Bioquest, Inc. Sunnyvale, Calif. U.S.A.). The fluorophore and quencher pair of FRETS-VWF73 (Nma/Dnp) described in Kokame has been substituted with FAM-5 and TQ_2 respectively in GTI_FRET4 SEQ ID NO: 1. Furthermore, in the SEQ ID NO: 1 polypeptide the position of the fluorophore (FAM-5) and quencher (TQ_2) has been swapped relative to the position of the fluorophore and quencher of the FRETS-VWF73 construct. Therefore, for GTI_FRET4 SEQ ID NO: 1, attachment of the fluorophore (FAM-5) occurs by substituting asparagine with cystine at position 15. The quencher (TQ_2) was attached by substituting glutamine with lysine at position 4 (FIG. 2 and Table 4).
For this experiment, substrate concentration and fluorescence reader settings determined on the previous experiment are used. The specimens tested (listed in Table 3), include a panel of proficiency samples prepared for use with ATS-13 (Gen-Probe GTI Diagnostics, Inc., U.S.A., Cat# ATS-13) which included samples with normal or deficient ADAMTS13 activity levels. In addition, six Factor Assay ConTrol plasma were used (2 FACT, 2 A-FACT and 2 B-FACT, from George King Biomedical Inc., Kansas, USA). The assays for the SEQ ID NO: 1 substrate and for the prior art FRETS-VWF73 assay were performed generally as according to the procedure described in Example 1. Substrate is prepared according to the conditions used for initial testing of the substrate, which prepared the molar amount of SEQ ID NO: 1 polypeptide substrate used in the assay to be equivalent to the molar amount of FRETS-VWF73 used in the prior art. The […] assays were read at 0, 5, 10, 15, 20, 30, 45 minutes.
Testing of substrate for cleavability by ADAMTS13 is determined as is generally described in Example 1. […]

% Normal ADAMTS13 Values Calculated Using GTI_FRET4 Substrate (sample Positive Control High, incubation 60 Minutes): 51 % Normal | % Normal ADAMTS13 Values Calculated Using GTI_FRET4 Substrate (sample Positive Control High, incubation 75 Minutes): 54 % Normal | % Normal ADAMTS13 Values Calculated Using GTI_FRET4 Substrate (sample Positive Control High, incubation 90 Minutes): 55 % Normal | Increase in Fluorescence Values (X minute - 0 minute Reading) (sample Positive Control Low, 15 min): 2,182 RFU | Increase in Fluorescence Values (X minute - 0 minute Reading) (sample Positive Control Low, 30 min): 3,902 RFU | Increase in Fluorescence Values (X minute - 0 minute Reading) (sample Positive Control Low, 45 min): 5,511 RFU | Increase in Fluorescence Values (X minute - 0 minute Reading) (sample Positive Control Low, 60 min): 7,169 RFU | Increase in Fluorescence Values (X minute - 0 minute Reading) (sample Positive Control Low, 75 min): 8,789 RFU | Increase in Fluorescence Values (X minute - 0 minute Reading) (sample Positive Control Low, 90 min): 10,370 RFU | % Normal ADAMTS13 Values Calculated Using GTI_FRET4 Substrate (sample Positive Control Low, incubation 15 Minutes): 10 % Normal | % Normal ADAMTS13 Values Calculated Using GTI_FRET4 Substrate (sample Positive Control Low, incubation 30 Minutes): 10 % Normal | % Normal ADAMTS13 Values Calculated Using GTI_FRET4 Substrate (sample Positive Control Low, incubation 45 Minutes): 10 % Normal | % Normal ADAMTS13 Values Calculated Using GTI_FRET4 Substrate (sample Positive Control Low, incubation 60 Minutes): 10 % Normal | % Normal ADAMTS13 Values Calculated Using GTI_FRET4 Substrate (sample Positive Control Low, incubation 75 Minutes): 10 % Normal | % Normal ADAMTS13 Values Calculated Using GTI_FRET4 Substrate (sample Positive Control Low, incubation 90 Minutes): 9 % Normal | Increase in Fluorescence Values (X minute - 0 minute Reading) (sample UAMS041609, 15 min): 3,876 RFU | Increase in Fluorescence Values (X minute - 0 minute Reading) (sample UAMS041609, 30 min): 7,931 RFU | Increase in Fluorescence Values (X minute - 0 minute Reading) (sample UAMS041609, 45 min): 11,692 RFU | Increase in Fluorescence Values (X minute - 0 minute Reading) (sample UAMS041609, 60 min): 15,886 RFU | Increase in Fluorescence Values (X minute - 0 minute Reading) (sample UAMS041609, 75 min): 19,867 RFU | Increase in Fluorescence Values (X minute - 0 minute Reading) (sample UAMS041609, 90 min): 24,709 RFU | % Normal ADAMTS13 Values Calculated Using GTI_FRET4 Substrate (sample UAMS041609, incubation 15 Minutes): 19 % Normal | % Normal ADAMTS13 Values Calculated Using GTI_FRET4 Substrate (sample UAMS041609, incubation 30 Minutes): 22 % Normal | % Normal ADAMTS13 Values Calculated Using GTI_FRET4 Substrate (sample UAMS041609, incubation 45 Minutes): 23 % Normal | % Normal ADAMTS13 Values Calculated Using GTI_FRET4 Substrate (sample UAMS041609, incubation 60 Minutes): 24 % Normal | % Normal ADAMTS13 Values Calculated Using GTI_FRET4 Substrate (sample UAMS041609, incubation 75 Minutes): 26 % Normal | % Normal ADAMTS13 Values Calculated Using GTI_FRET4 Substrate (sample UAMS041609, incubation 90 Minutes): 27 % Normal | Increase in Fluorescence Values (X minute - 0 minute Reading) (sample VF, 15 min): 1,292 RFU | Increase in Fluorescence Values (X minute - 0 minute Reading) (sample VF, 30 min): 2,436 RFU | Increase in Fluorescence Values (X minute - 0 minute Reading) (sample VF, 45 min): 3,552 RFU | Increase in Fluorescence Values (X minute - 0 minute Reading) (sample VF, 60 min): 4,690 RFU | Increase in Fluorescence Values (X minute - 0 minute Reading) (sample VF, 75 min): 5,784 RFU | Increase in Fluorescence Values (X minute - 0 minute Reading) (sample VF, 90 min): 7,260 RFU | % Normal ADAMTS13 Values Calculated Using GTI_FRET4 Substrate (sample VF, incubation 15 Minutes): 5 % Normal | % Normal ADAMTS13 Values Calculated Using GTI_FRET4 Substrate (sample VF, incubation 30 Minutes): 6 % Normal | % Normal ADAMTS13 Values Calculated Using GTI_FRET4 Substrate (sample VF, incubation 45 Minutes): 6 % Normal | % Normal ADAMTS13 Values Calculated Using GTI_FRET4 Substrate (sample VF, incubation 60 Minutes): 6 % Normal | % Normal ADAMTS13 Values Calculated Using GTI_FRET4 Substrate (sample VF, incubation 75 Minutes): 5 % Normal | % Normal ADAMTS13 Values Calculated Using GTI_FRET4 Substrate (sample VF, incubation 90 Minutes): 6 % Normal
Sequence: DREKAPNLVYMVTGCPASDEIKRLPGDIQVVPIEVIGWPNAPILIQDEETLPREAPDLVLQR [GTI_FRET4]
